Laboratory results from patent US20220340657A1 (L AND L BIO CO LTD NINGBO CHINA, published 2022).
Residue numbers refer to the chain shown, from its start. Names and notes keep the numbering of the source.

T1: human LAG-3-his (human, UniProt P18627 23-422)
T1 construct: range 23-422; also called hLAG-3-his; hLAG-3
T1 sequence: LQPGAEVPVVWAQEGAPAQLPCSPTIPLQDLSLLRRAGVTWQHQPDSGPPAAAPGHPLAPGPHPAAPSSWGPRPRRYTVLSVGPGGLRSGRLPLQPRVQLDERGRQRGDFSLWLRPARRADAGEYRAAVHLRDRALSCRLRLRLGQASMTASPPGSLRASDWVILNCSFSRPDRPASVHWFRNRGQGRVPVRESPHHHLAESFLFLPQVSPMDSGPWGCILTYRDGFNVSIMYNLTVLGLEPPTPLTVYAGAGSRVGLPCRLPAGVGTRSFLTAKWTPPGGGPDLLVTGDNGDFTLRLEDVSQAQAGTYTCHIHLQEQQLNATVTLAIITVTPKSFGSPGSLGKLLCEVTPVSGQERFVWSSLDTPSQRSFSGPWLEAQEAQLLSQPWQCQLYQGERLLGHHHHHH

T2: bio-LAG3-mFc (human, UniProt P18627 23-450, biotin-labelled)
T2 construct: also called hLAG-3
T2 sequence (looked up): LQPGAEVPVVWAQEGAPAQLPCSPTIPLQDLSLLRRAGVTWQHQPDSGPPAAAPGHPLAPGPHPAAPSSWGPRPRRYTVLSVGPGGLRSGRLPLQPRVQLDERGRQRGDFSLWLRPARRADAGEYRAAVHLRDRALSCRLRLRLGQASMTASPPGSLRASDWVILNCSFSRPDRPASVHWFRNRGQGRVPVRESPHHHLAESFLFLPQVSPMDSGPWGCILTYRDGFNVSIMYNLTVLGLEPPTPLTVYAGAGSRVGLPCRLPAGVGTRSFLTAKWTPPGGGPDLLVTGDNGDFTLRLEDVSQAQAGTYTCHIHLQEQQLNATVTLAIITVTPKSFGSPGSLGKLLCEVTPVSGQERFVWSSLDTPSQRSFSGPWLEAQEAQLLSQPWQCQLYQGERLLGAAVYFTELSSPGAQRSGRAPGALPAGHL

T3: Bio-LAG-his (UniProt P18627 23-450, biotin-labeled)
T3 construct: Detection reagent of the double-sandwich ELISA; also called biotin-labeled LAG-3-his (ACROBiosystems); not shown: his tag of the bought product
T3 sequence (looked up): T2 sequence (looked up)

B1: LB2381 (bispecific antibody, human IgG4 S228P, kappa)
light: DIQMTQSPSSLSASVGDRVTITCRASQDIGSSLNWYQQKPGKAPKRLIYATSSLDSGVPSRFSGSRSGSDFTLTISSLQPEDFATYYCLQYVTSPLTFGGGTKVEIKGGGGSGGGGSGGGGSQVQLVQSGAEVKKPGASVKVSCKASGYTFTDYEMHWVKQAPGQGLEWIGGIDPETEGIAYNQKFRGRATLTADKSTSTAYMELRSLRSDDTAVYYCTNSNYYGGREAWFAYWGQGTLVTVSSGGGGSGGGGSGGGGSEIVLTQSPATLSLSPGERATLSCRASKGVSTSGYSYLHWYQQKPGQAPRLLIYLASYLESGVPARFSGSGSGTDFTLTISSLEPEDFAVYYCQHSRDLPLTFGGGTKVEIKRTVAAPSVFIFPPSDEQLKSGTASVVCLLNNFYPREAKVQWKVDNALQSGNSQESVTEQDSKDSTYSLSSTLTLSKADYEKHKVYACEVTHQGLSSPVTKSFNRGEC
heavy: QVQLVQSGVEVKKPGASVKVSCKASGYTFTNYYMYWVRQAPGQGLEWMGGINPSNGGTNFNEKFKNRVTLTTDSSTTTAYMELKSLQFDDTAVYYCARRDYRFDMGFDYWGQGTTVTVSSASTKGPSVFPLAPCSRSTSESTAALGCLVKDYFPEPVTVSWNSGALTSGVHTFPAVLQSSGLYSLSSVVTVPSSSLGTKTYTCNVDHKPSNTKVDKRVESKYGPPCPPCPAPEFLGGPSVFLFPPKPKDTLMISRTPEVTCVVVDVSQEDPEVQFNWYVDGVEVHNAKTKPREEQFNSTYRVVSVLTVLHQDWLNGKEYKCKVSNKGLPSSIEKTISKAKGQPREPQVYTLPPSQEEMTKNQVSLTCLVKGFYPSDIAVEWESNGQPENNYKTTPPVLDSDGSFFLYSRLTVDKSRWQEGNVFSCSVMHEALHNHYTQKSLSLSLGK
B2: Ab2315 (antibody, human IgG4 S228P, kappa, V domains shown)
VH: QVQLVQSGAEVKKPGASVKVSCKASGYTFTDYEMHWVKQAPGQGLEWIGGIDPETEGIAYNQKFRGRATLTADKSTSTAYMELRSLRSDDTAVYYCTNSNYYGGREAWFAYWGQGTLVTVSS
VL: DIQMTQSPSSLSASVGDRVTITCRASQDIGSSLNWLQQKPGKAIKRLIYATSSLDSGVPSRFSGSGSGTDYTLTISSLQPEDFATYYCLQYVTSPLTFGGGTKVEIKR
notes: LG2315 / LG2343, human kappa / hIgG4
B3: Ab2314 (antibody, human IgG4 S228P, kappa, V domains shown)
VH: B2 VH
VL: B2 VL with G66R, T69S
notes: human kappa / hIgG4
B4: Ab2316 (antibody, human IgG4 S228P, kappa, V domains shown)
VH: B2 VH
VL: B2 VL with G66R, T69S, Y71F
notes: human kappa / hIgG4
B5: Ab2318 (antibody, human IgG4 S228P, kappa, V domains shown)
VH: B2 VH
VL: B2 VL with G66R, Y71F
notes: human kappa / hIgG4
B6: Ab2320 (antibody, human IgG4 S228P, kappa, V domains shown)
VH: B2 VH with L70M, A72T
VL: B2 VL
notes: human kappa / hIgG4
B7: Ab2313 (antibody, human IgG4 S228P, kappa, V domains shown)
VH: B2 VH
VL: B2 VL with T5I, K42G, G66R, T69S, T72S
notes: human kappa / hIgG4
B8: Ab2322 (antibody, human IgG4 S228P, kappa, V domains shown)
VH: B2 VH with L70M, A72T, K74T
VL: B2 VL with L36Y, I44P, G66R, T69S, Y71F
notes: human kappa / hIgG4
B9: Ab2319 (antibody, human IgG4 S228P, kappa, V domains shown)
VH: B2 VH with L70M, A72T
VL: B2 VL with G66R, T69S
notes: human kappa / hIgG4
B10: LB2382 (bispecific antibody, human IgG4 S228P, kappa)
light: EIVLTQSPATLSLSPGERATLSCRASKGVSTSGYSYLHWYQQKPGQAPRLLIYLASYLESGVPARFSGSGSGTDFTLTISSLEPEDFAVYYCQHSRDLPLTFGGGTKVEIKRTVAAPSVFIFPPSDEQLKSGTASVVCLLNNFYPREAKVQWKVDNALQSGNSQESVTEQDSKDSTYSLSSTLTLSKADYEKHKVYACEVTHQGLSSPVTKSFNRGECGGGGSGGGGSGGGGSQVQLVQSGAEVKKPGASVKVSCKASGYTFTDYEMHWVKQAPGQGLEWIGGIDPETEGIAYNQKFRGRATLTADKSTSTAYMELRSLRSDDTAVYYCTNSNYYGGREAWFAYWGQGTLVTVSSGGGGSGGGGSGGGGSDIQMTQSPSSLSASVGDRVTITCRASQDIGSSLNWYQQKPGKAPKRLIYATSSLDSGVPSRFSGSRSGSDFTLTISSLQPEDFATYYCLQYVTSPLTFGGGTKVEIK
heavy: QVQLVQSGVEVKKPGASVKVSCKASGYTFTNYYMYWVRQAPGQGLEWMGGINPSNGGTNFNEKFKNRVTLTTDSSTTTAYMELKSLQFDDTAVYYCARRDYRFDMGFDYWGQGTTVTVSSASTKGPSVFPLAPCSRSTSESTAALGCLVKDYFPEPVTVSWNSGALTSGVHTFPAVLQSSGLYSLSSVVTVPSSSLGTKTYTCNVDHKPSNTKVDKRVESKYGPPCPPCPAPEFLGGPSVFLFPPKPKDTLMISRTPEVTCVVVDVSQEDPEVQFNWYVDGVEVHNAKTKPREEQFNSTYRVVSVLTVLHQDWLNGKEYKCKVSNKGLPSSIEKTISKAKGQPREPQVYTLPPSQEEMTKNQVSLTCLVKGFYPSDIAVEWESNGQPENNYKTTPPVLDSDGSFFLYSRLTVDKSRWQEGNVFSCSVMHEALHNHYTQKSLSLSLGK
B11: bispecific antibody (SBody) LB2371 (bispecific antibody, human IgG4 S228P, kappa)
light: EIVLTQSPATLSLSPGERATLSCRASKGVSTSGYSYLHWYQQKPGQAPRLLIYLASYLESGVPARFSGSGSGTDFTLTISSLEPEDFAVYYCQHSRDLPLTFGGGTKVEIKRTVAAPSVFIFPPSDEQLKSGTASVVCLLNNFYPREAKVQWKVDNALQSGNSQESVTEQDSKDSTYSLSSTLTLSKADYEKHKVYACEVTHQGLSSPVTKSFNRGEC
heavy: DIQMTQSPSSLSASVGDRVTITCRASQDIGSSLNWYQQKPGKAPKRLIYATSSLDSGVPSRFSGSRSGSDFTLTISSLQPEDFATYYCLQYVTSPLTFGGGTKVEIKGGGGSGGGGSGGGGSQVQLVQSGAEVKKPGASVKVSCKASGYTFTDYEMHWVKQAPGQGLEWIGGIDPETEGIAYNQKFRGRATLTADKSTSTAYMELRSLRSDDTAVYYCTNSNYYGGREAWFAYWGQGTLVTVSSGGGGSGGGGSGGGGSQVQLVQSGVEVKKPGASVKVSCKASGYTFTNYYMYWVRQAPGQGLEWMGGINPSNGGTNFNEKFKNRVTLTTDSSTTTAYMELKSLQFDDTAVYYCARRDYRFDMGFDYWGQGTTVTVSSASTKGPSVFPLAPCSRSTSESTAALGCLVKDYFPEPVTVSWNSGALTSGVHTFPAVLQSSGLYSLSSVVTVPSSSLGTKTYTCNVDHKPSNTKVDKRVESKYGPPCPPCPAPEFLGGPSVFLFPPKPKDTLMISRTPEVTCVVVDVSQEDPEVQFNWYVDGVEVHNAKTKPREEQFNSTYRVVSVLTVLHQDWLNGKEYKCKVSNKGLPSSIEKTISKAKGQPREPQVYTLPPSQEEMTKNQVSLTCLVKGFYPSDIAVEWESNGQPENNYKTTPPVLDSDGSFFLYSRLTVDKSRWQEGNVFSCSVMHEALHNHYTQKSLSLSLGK
notes: Ab2317VL-(G4S)3-Ab2317VH-(G4S)3-PemVH-Hc (hIgG4)
B12: LB2383 (bispecific antibody, human IgG4 S228P, kappa)
light: B11 light
heavy: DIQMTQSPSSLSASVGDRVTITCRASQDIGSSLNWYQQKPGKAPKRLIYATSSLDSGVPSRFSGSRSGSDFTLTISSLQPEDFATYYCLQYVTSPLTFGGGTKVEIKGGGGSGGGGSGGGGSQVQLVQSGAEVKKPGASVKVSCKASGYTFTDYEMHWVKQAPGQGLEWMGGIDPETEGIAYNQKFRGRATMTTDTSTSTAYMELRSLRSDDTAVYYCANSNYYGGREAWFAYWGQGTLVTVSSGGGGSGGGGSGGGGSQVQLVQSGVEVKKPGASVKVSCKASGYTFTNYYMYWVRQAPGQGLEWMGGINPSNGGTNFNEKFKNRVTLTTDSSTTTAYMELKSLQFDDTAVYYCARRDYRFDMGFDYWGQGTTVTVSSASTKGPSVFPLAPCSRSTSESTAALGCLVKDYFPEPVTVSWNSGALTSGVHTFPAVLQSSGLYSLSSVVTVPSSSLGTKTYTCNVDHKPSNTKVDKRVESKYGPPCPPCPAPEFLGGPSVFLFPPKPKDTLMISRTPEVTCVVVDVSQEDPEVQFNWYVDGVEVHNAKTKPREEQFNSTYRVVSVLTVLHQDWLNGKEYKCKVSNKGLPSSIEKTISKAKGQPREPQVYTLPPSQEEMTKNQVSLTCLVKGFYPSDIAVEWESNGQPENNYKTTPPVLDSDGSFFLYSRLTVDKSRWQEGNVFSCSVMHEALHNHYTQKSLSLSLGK

Columns and labels:
human PD-1 (hFc/his tag) [1] = target: T4, human PD-1 (hFc/his tag) (human, UniProt Q15116 21-167); assay: ELISA on human PD-1
T4 construct: range 21-167; not shown: hFc or his tag

human LAG-3-his [2] = target: T1, human LAG-3-his; assay: ELISA on human LAG-3
bio-LAG3-mFc [3] = target: T2, bio-LAG3-mFc; assay: blocking ELISA, LAG-3 on Daudi cells
human LAG-3-his [4] = target: T1, human LAG-3-his; assay: ELISA on hLAG-3
Description: After discarding the liquid, a blocking solution of 5% skimmed milk (Bright skimmed milk powder) diluted with PBS was added at 230 μl per well, followed by incubating at 37° C. for 3 hours or 4° C. overnight (16-18 hours) for blocking. Subsequently, the blocking solution was discarded, and the micropiate was washed 5 times with PBST buffer (pH 7.4 PBS containing 0.05% tweeen-20). Then 50 μl/well of the supernatant (containing the antibody to be tested) or a starting concentration of 10 μg/ml of the antibody to be tested, which was diluted 5 times in gradient, was added, followed by incubating the mixture for 1 hour at 37° C. […] After washing the microplate 5 times with PBST, 50 μl/well TIMB chromogenic substrate (KPL, Cat. No.: 52-00-03) was added, and then incubated for […] at room temperature. Finally, 50 μl/well of 1 M H₂SO₄ was added to stop the reaction. The absorbance value at 450 nm was read by […] GO microplate reader (ThermoFisher, Cat. No.: 51119200). The clones with high affinity were selected according to the OD value or the EC₅₀ value was calculated (for antibodies with known concentrations).

human LAG-3-his [5] = target: T1, human LAG-3-his; assay: ELISA on coated human LAG-3, OD450 (Example 3, Example 13) [panel a]
human PD-1 (hFc/his tag) [6] = target: T4, human PD-1 (hFc/his tag); assay: ELISA on human PD-1, sample kept at 37 C for 5 days
human LAG-3-his [7] = target: T1, human LAG-3-his; assay: ELISA on human LAG3, sample kept at 37 C for 5 days
human PD-1 (hFc/his tag) [8] = target: T4, human PD-1 (hFc/his tag); assay: ELISA on human PD-1, sample stored at -80 C for 60 days
bio-LAG3-mFc [9] = target: T2, bio-LAG3-mFc; assay: blocking of LAG3 binding to Daudi cells
Description: The Daudi cell line (ATCC, CCL-213) was expanded and seeded into 96-well microplate at a density of 2×10⁵ cells/well, and then centrifuged at 1600 rpm for 10 min; thereafter the cells were fixed with 100 μl/well of a fixative solution for immunostaining (Shanghai Beyotime Biotechnology Co., Ltd., Cat. No.: P0098) for half an hour at room temperature. After washing with PBS (BasalMedia Biology, Cat. No.: B320) once, 5% milk was added with 230 μl per well, and the microplate was incubated for 2 hours at 37° C. for blocking, then was washed three times with PBST. […] The microplate was then incubated for 1 hour at 37° C. and washed 5 times with PBST. 50 μl/well of 1:1000 diluted streptavidin-HRP secondary antibody (GenScript, Cat. No.: M00091) was added to the microplate and incubated for 1 hour at 37° C. After washing the microplate 5 times with PBST, 50 μl/well TMB (Surmodic, Cat. No.: TTMB-1000-01) was added to the microplate for color development, and 50 μl/well 1M H₂SO₄ was added to stop the reaction. The microplate was then read by a microplate reader (MuitiskanGo Thermo, model 511919200), and the data were analyzed using GraphPad prism 5.

human LAG-3-his [10] = target: T1, human LAG-3-his; assay: ELISA on human LAG3, sample kept at 37 C for 10 days
human LAG-3-his [11] = target: T1, human LAG-3-his; assay: ELISA on human LAG3, sample stored at -80 C for 60 days; sample stored at -80 C for 60 days (reference value in brackets)
human PD-1 (hFc/his tag) [12] = target: T4, human PD-1 (hFc/his tag); assay: ELISA on human PD-1, sample kept at 37 C for 10 days
human LAG-3-his [13] = target: T1, human LAG-3-his; assay: ELISA on human LAG3, sample stored at -80 C for 60 days
Bio-LAG-his = target: T3, Bio-LAG-his; assay: double-sandwich ELISA: plate coated with PD-1, bispecific titrated, detected with Bio-LAG-his
Description: Finally, 50 μl/well of 1M H₂SO₄ was added to stop the reaction.

human PD-1 (hFc/his tag) [14] = target: T4, human PD-1 (hFc/his tag); assay: blocking of PD-1 binding to PD-L1
human PD-1 (hFc/his tag) [15] = target: T4, human PD-1 (hFc/his tag); assay: ELISA on coated human PD-1, OD450 (Example 13) [panel b]

T4 sequence (Q15116 21-167, form in doubt): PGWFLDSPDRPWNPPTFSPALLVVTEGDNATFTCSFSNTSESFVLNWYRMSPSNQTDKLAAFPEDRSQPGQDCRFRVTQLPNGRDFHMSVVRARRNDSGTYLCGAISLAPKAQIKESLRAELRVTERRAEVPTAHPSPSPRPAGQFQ

Row | Binder | EC50 (human PD-1 (hFc/his tag) [1]) | EC50 (human LAG-3-his [2]) | IC50 (bio-LAG3-mFc [3]) | EC50 (human LAG-3-his [4]) | also measured
1 | B1 | 0.332 nM | 0.79 nM | – | – | –
2 | B2 | – | – | 2.18 nM | 0.181 nM | –
3 | B3 | – | – | 1.22 nM | 0.237 nM | –
4 | B4 | – | – | 1.5 nM | 0.307 nM | –
5 | B5 | – | – | 0.86 nM | 0.28 nM | –
6 | B6 | – | – | 1.32 nM | 1.01 nM | –
7 | B7 | – | – | 3.22 nM | 0.221 nM | –
8 | B8 | – | – | 2.32 nM | 0.131 nM | –
9 | B9 | – | – | 1.85 nM | 0.764 nM | –
10 | B10 | 0.309 nM | 0.951 nM | – | – | –
11 | B11 | 0.128 nM | 0.179 nM | – | – | EC50 (read off the curve) (human LAG-3-his [5]): ~0.2 nM; EC50 (human PD-1 (hFc/his tag) [6]): 0.293 nM; EC50 (human LAG-3-his [7]): 0.251 nM; EC50 (human PD-1 (hFc/his tag) [8]): 0.227 nM; IC50 (bio-LAG3-mFc [9]): 77.5 nM; EC50 (human LAG-3-his [10]): 0.392 nM; EC50 (human LAG-3-his [11]): 0.298 nM; EC50 (human PD-1 (hFc/his tag) [12]): 0.324 nM; EC50 (human LAG-3-his [13]): 0.298 nM; EC50 (Bio-LAG-his): 1.09 nM; IC50 (human PD-1 (hFc/his tag) [14]): 0.268 nM; EC50 (read off the curve) (human PD-1 (hFc/his tag) [15]): ~0.1 nM
12 | B12 | 0.138 nM | 0.237 nM | – | – | –
